Data on five molecules can be found in PMC11834443, “Allosteric regulation of pyruvate kinase enables efficient and robust gluconeogenesis by preventing metabolic conflicts and carbon overflow” (mSystems, 2025).

The target in series [1] is T1, wild-type full length pyruvate kinase (WT Pyk) (Bacillus subtilis, UniProt P80885). In words: LDH-coupled assay, NADH absorbance at […] nm. The series is classed as biochemical.
In series [2] the target is T1, wild-type full length pyruvate kinase (WT Pyk). The series is classed as biochemical.
Series [3] shares this target. In words: LDH-coupled assay, fit to nonessential activation equation. The series is classed as biochemical.
Substrate in the series “purified protein”: Nc1ncnc2c1ncn2[C@@H]1O[C@H](COP(=O)(O)OP(=O)(O)O)[C@@H](O)[C@H]1O
In words: purified protein. The following applies: pH 7.5.

Series [4] deals with the molecule itself. Kind of series: SEC; 100 µL of 100 µM protein on Superdex200 26/60; 20 mM Tris-Cl pH 7.5, 300 mM NaCl, 1 mM EDTA, 1 mM DTT, 10% glycerol; 3 mL/min, 4°C; mass from a standard curve of partition coefficients. (In general: Size exclusion chromatography separates by hydrodynamic size, large species first.)

By Ki is commonly meant a dissociation constant, usually derived from enzyme kinetics or from competition with a known ligand. In series [1], `Nc1ncnc2c1ncn2[C@@H]1O[C@H](COP(=O)(O)OP(=O)(O)OP(=O)(O)O)[C@@H](O)[C@H]1O` [ATP] gave a Ki of 520 ± 50 µM.

Turning to `Nc1ncnc2c1ncn2[C@@H]1O[C@H](COP(=O)(O)O)[C@@H](O)[C@H]1O` [AMP], the “LDH-coupled assay, NADH absorbance at 340 nm” value in series [2] is recorded as “wild-type B. subtilis pyruvate kinase was activated by AMP or R5P (Fig. S3a)”.

As usually defined, the Kd is the concentration at which binding is half-saturated. Low readings indicate a tighter complex, high ones a looser complex. Take `O=P(O)(O)OC[C@H]1OC(O)[C@H](O)[C@@H]1O` (stereo partly shown) [R5P]: binding in series [3] was characterised by a dissociation constant (Kd) of 570 ± 40 µM.

B1: Bacillus subtilis pyruvate kinase, wild-type full length (enzyme, B. subtilis, UniProt P80885 1-585, looked up)
chain: MRKTKIVCTIGPASESIEMLTKLMESGMNVARLNFSHGDFEEHGARIKNIREASKKLGKNVGILLDTKGPEIRTHTMENGGIELETGKELIISMDEVVGTTDKISVTYEGLVHDVEQGSTILLDDGLIGLEVLDVDAAKREIKTKVLNNGTLKNKKGVNVPGVSVNLPGITEKDARDIVFGIEQGVDFIAPSFIRRSTDVLEIRELLEEHNAQDIQIIPKIENQEGVDNIDAILEVSDGLMVARGDLGVEIPAEEVPLVQKELIKKCNALGKPVITATQMLDSMQRNPRPTRAEASDVANAIFDGTDAIMLSGETAAGSYPVEAVQTMHNIASRSEEALNYKEILSKRRDQVGMTITDAIGQSVAHTAINLNAAAIVTPTESGHTARMIAKYRPQAPIVAVTVNDSISRKLALVSGVFAESGQNASSTDEMLEDAVQKSLNSGIVKHGDLIVITAGTVGESGTTNLMKVHTVGDIIAKGQGIGRKSAYGPVVVAQNAKEAEQKMTDGAVLVTKSTDRDMIASLEKASALITEEGGLTSHAAVVGLSLGIPVIVGLENATSILTDGQDITVDASRGAVYQGRASVL
notes: This looks larger than the untagged protein, although the methods say the His tag was removed with TEV protease; also called WT Pyk; WT; source: E. coli BL21 (DE3), purified (HisTrap FF, TEV digestion, size-exclusion chromatography); not shown: His6, N-terminal, cleaved
One may read the Km as the substrate concentration at which the rate is half of its maximum. Broadly, the stoichiometry N is a count of units in the complex or per binding partner. On to B1, for which the Km in “purified protein” worked out at 1010 ± 30 µM. Besides, in series [4], the “stoichiometry N” value amounted to 4.

B2: Bacillus subtilis pyruvate kinase lacking the extra C-terminal domain (residues 1-474) (domain or fragment, B. subtilis, UniProt P80885 1-474, looked up)
chain: MRKTKIVCTIGPASESIEMLTKLMESGMNVARLNFSHGDFEEHGARIKNIREASKKLGKNVGILLDTKGPEIRTHTMENGGIELETGKELIISMDEVVGTTDKISVTYEGLVHDVEQGSTILLDDGLIGLEVLDVDAAKREIKTKVLNNGTLKNKKGVNVPGVSVNLPGITEKDARDIVFGIEQGVDFIAPSFIRRSTDVLEIRELLEEHNAQDIQIIPKIENQEGVDNIDAILEVSDGLMVARGDLGVEIPAEEVPLVQKELIKKCNALGKPVITATQMLDSMQRNPRPTRAEASDVANAIFDGTDAIMLSGETAAGSYPVEAVQTMHNIASRSEEALNYKEILSKRRDQVGMTITDAIGQSVAHTAINLNAAAIVTPTESGHTARMIAKYRPQAPIVAVTVNDSISRKLALVSGVFAESGQNASSTDEMLEDAVQKSLNSGIVKHGDLIVITAGTVGESGTTNLMKVHTVGD
notes: pyruvate kinase (Pyk) of Bacillus subtilis, N-terminal residues 1-474, without the extra C-terminal domain (ECTD); in pLIC-trPC-HA (plasmid pJW724); This looks larger than untagged residues 1-474, although the methods say the His tag was removed with TEV protease; also called PykΔECTD; ΔECTD pyruvate kinase; source: E. coli BL21 (DE3), purified (HisTrap FF, TEV digestion, size-exclusion …)
On to B2, for which, in “purified protein”, the Km stood at 1830 ± 240 µM. The “stoichiometry N” value in series [4] stood at 4.
